From US20160024496
Read-outs that look alike come from different tables or passages of the source.

Legend:
HMGB2 (Homo sapiens) = molecular target: T1, HMGB2 (Homo sapiens) (UniProt P26583); conditions: proteome array, scrambled control
T1 sequence: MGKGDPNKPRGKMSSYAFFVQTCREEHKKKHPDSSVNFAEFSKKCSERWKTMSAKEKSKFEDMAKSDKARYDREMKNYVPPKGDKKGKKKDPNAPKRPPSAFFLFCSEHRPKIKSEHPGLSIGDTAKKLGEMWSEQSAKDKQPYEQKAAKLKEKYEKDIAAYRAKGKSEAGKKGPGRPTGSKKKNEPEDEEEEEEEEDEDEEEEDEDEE

WBP11 (Homo sapiens) = WBP11 (Homo sapiens) (UniProt Q9Y2W2); conditions: proteome array, scrambled control
Sequence of WBP11 (Homo sapiens) (Q9Y2W2 whole entry): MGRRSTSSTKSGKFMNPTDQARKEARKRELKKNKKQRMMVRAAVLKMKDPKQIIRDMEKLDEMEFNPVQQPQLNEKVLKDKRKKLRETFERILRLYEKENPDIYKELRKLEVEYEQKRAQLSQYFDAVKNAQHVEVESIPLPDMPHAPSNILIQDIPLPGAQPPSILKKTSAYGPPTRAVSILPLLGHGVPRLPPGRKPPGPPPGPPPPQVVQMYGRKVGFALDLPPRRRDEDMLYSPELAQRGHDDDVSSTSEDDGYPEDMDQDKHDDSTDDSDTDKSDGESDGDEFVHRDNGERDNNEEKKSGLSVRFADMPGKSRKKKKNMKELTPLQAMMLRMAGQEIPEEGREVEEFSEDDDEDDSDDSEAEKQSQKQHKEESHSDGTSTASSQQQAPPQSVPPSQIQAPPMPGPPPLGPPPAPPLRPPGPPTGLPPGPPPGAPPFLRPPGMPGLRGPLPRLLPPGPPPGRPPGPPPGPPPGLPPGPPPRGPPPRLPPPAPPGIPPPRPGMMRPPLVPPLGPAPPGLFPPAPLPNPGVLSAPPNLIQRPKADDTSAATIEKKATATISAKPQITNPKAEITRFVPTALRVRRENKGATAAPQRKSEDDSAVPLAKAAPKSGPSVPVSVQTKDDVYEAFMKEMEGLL

[1] = system: T2, DAZ2 (Homo sapiens), Q13117-3; conditions: proteome array, scrambled control
T2 sequence: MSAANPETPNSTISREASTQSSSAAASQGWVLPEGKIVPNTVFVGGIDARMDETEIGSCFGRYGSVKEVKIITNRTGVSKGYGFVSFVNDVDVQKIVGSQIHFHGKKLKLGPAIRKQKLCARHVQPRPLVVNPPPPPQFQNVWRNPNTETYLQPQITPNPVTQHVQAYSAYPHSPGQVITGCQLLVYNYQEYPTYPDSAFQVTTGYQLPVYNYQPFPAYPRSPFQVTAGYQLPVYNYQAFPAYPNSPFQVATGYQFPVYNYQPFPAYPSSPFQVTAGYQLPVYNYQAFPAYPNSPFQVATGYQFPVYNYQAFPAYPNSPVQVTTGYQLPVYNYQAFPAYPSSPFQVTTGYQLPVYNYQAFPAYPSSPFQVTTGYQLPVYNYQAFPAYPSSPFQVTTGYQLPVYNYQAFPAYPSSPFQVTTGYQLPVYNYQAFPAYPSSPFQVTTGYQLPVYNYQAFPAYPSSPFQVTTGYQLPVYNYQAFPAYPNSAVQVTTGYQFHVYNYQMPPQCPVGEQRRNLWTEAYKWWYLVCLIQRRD

[2] = system: T3, DPH2 (Homo sapiens), Q9BQC3-2; conditions: proteome array
T3 sequence: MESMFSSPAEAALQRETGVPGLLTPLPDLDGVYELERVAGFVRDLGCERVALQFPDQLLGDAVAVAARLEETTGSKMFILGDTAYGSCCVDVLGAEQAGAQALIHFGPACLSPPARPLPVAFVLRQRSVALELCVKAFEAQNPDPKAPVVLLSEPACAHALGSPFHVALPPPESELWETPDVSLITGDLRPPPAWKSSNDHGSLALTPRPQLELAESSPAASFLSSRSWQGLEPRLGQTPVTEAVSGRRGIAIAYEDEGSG

RANGAP1 (Homo sapiens) = molecular target: T4, RANGAP1 (Homo sapiens) (UniProt P46060); conditions: proteome array, scrambled control
T4 sequence: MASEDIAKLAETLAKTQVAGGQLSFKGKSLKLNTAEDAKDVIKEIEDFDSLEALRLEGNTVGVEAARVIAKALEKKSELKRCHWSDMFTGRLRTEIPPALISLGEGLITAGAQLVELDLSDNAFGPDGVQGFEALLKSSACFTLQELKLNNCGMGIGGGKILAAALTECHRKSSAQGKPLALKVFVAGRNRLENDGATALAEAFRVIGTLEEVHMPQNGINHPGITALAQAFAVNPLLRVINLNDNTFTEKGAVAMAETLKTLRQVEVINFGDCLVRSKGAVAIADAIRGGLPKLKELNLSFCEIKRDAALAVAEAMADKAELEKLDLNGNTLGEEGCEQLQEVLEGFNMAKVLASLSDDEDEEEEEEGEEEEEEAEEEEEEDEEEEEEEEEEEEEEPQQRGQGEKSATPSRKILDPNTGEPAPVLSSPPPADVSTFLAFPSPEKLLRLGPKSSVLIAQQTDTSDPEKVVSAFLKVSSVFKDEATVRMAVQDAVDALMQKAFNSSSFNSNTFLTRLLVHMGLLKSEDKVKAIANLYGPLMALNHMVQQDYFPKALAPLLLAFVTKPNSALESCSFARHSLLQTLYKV

MPP7 (Homo sapiens) = molecular target: T5, MPP7 (Homo sapiens) (UniProt Q5T2T1); conditions: proteome array, scrambled control
T5 sequence: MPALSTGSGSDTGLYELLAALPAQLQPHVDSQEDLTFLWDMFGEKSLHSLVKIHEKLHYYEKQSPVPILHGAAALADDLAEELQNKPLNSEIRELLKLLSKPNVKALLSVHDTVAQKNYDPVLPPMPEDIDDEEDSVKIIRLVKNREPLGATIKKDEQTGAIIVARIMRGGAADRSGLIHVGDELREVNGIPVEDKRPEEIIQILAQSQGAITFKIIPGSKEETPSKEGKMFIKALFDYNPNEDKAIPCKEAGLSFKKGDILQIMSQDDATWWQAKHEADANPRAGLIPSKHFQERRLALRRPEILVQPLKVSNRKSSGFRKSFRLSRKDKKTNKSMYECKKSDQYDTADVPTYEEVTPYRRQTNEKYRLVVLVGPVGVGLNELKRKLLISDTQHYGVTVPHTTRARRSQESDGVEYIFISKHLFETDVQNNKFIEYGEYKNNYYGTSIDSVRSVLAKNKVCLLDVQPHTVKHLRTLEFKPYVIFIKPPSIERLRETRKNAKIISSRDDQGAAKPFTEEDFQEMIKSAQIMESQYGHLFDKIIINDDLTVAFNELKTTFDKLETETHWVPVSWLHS

ORAOV1 (Homo sapiens) = molecular target: T6, ORAOV1 (Homo sapiens) (UniProt Q8WV07); conditions: proteome array, scrambled control
T6 sequence: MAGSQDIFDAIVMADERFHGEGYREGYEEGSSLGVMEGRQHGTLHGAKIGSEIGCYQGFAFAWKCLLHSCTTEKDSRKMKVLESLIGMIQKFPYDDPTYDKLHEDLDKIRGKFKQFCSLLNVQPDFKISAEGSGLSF

NUDT6 (Homo sapiens) = molecular target: T7, NUDT6 (Homo sapiens) (UniProt P53370); conditions: proteome array, scrambled control
T7 sequence: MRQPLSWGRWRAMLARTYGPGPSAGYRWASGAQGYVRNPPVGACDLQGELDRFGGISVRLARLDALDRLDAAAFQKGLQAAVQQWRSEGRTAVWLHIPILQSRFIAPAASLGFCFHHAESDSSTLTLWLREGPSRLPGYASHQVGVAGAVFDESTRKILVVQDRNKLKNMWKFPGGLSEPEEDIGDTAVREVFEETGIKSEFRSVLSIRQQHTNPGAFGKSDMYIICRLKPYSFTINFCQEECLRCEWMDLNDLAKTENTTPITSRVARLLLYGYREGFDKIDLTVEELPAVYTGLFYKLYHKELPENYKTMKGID

[3] = system: MITF (Homo sapiens), O75030-2; conditions: proteome array, scrambled control
Sequence of MITF (Homo sapiens), O75030-2 (O75030 other isoform, or with tags, fused parts or gaps): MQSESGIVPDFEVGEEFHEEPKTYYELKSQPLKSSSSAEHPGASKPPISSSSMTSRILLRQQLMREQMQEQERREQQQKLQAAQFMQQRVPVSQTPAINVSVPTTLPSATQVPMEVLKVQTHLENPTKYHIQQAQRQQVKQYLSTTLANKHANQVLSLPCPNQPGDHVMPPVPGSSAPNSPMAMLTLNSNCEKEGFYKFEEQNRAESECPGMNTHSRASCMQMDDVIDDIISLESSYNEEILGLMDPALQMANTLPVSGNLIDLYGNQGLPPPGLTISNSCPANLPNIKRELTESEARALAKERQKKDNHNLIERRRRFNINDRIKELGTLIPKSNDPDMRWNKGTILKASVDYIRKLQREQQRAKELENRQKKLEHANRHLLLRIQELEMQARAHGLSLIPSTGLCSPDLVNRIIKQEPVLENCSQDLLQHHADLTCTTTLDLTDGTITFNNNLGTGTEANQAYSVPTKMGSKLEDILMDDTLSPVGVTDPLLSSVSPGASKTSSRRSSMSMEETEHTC

NDST1 (Homo sapiens) = molecular target: T8, NDST1 (Homo sapiens) (UniProt P52848); conditions: proteome array, scrambled control
T8 sequence: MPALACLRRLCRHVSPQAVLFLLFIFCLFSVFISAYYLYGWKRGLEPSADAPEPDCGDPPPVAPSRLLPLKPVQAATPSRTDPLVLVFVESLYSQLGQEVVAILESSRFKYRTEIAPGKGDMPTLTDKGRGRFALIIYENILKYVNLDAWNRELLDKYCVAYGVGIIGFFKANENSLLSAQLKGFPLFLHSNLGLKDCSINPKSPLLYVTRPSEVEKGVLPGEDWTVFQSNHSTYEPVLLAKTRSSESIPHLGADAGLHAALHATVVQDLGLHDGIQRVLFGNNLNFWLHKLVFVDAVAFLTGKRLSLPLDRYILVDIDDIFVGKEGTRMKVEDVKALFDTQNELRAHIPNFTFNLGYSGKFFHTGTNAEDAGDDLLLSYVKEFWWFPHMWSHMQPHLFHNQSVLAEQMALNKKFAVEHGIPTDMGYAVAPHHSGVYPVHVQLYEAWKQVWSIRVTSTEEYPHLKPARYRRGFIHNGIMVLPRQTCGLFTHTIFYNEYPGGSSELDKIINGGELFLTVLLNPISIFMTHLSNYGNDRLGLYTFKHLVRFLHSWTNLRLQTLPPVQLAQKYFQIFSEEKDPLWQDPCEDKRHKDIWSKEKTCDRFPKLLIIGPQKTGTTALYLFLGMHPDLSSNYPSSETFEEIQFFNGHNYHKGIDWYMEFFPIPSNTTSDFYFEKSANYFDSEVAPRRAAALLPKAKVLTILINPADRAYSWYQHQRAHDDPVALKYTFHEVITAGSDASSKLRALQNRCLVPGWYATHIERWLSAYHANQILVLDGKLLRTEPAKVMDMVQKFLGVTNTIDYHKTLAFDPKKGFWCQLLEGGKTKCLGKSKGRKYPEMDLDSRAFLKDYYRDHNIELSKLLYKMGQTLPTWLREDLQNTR

JARID2 (Homo sapiens) = JARID2 (Homo sapiens) (UniProt Q92833); conditions: proteome array, scrambled control
Sequence of JARID2 (Homo sapiens) (Q92833 whole entry): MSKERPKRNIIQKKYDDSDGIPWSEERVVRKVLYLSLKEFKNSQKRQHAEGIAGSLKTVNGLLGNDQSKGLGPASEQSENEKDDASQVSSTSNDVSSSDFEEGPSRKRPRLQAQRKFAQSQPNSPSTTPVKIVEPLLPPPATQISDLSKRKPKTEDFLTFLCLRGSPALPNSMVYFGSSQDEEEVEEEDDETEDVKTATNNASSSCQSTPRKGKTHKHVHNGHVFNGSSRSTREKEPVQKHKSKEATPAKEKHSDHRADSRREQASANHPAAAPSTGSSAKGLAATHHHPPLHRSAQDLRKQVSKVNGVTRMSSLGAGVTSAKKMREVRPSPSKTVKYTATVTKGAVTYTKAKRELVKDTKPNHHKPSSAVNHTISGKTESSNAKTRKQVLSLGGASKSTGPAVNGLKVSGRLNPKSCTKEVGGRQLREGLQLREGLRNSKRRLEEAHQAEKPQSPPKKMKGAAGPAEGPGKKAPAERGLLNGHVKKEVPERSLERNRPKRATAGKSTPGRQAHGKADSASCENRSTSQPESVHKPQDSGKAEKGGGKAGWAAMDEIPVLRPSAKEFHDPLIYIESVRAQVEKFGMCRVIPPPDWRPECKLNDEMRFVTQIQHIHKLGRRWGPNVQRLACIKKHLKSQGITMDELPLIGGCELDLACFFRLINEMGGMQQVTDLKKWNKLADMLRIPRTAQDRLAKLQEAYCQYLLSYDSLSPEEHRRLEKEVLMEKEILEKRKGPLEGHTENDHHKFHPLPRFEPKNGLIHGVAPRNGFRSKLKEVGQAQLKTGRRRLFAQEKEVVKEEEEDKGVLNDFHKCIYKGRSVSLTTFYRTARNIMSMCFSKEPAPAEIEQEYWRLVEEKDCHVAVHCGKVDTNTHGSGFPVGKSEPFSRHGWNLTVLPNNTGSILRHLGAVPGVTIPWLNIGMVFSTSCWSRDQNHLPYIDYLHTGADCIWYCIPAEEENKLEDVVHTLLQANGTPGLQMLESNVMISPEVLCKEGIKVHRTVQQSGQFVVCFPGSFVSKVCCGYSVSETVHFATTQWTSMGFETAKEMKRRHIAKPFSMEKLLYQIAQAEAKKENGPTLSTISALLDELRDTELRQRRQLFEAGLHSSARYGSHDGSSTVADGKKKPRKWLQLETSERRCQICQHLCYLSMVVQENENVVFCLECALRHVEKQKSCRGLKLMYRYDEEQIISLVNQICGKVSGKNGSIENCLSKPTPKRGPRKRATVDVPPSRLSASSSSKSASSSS

PTER (Homo sapiens) = molecular target: T9, PTER (Homo sapiens) (UniProt Q96BW5); conditions: proteome array, scrambled control
T9 sequence: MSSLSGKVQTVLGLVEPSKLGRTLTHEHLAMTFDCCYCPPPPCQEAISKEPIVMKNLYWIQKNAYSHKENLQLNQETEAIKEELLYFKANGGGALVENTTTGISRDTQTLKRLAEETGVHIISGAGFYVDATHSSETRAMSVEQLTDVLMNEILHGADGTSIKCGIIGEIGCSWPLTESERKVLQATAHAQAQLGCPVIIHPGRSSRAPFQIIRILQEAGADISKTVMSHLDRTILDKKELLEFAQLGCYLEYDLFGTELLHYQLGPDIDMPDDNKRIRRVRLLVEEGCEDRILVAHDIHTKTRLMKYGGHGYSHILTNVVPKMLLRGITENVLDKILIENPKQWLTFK

TCL1B (Homo sapiens) = molecular target: T10, TCL1B (Homo sapiens) (UniProt O95988); conditions: proteome array, scrambled control
T10 sequence: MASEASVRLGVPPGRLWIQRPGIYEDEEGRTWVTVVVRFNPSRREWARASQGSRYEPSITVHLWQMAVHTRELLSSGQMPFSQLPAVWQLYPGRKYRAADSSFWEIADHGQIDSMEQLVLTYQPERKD

ADARB2 (Homo sapiens) = molecular target: T11, ADARB2 (Homo sapiens) (UniProt Q9NS39); conditions: proteome array, scrambled control
T11 sequence: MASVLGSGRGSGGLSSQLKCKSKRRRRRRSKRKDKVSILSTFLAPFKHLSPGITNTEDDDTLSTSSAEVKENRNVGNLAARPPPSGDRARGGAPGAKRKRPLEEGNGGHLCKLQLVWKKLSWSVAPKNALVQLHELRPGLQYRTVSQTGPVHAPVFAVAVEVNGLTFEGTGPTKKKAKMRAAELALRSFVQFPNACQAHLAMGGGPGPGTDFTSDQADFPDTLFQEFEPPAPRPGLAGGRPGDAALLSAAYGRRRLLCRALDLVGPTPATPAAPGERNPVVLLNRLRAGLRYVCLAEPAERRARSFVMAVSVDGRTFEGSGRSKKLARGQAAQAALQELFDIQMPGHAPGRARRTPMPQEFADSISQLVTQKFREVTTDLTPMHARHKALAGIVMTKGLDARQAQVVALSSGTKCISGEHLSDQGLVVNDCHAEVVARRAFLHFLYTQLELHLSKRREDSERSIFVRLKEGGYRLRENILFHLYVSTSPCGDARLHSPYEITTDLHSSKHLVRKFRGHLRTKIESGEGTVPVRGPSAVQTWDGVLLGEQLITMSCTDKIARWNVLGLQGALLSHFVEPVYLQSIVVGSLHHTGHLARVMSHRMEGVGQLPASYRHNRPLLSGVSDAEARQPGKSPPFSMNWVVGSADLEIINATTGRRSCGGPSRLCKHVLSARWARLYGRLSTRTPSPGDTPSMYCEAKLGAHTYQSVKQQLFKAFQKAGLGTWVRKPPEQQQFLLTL

[4] = system: ZNF695 (Homo sapiens), Q8IW36-1; conditions: proteome array
Sequence of ZNF695 (Homo sapiens), Q8IW36-1 (Q8IW36 other isoform, or with tags, fused parts or gaps): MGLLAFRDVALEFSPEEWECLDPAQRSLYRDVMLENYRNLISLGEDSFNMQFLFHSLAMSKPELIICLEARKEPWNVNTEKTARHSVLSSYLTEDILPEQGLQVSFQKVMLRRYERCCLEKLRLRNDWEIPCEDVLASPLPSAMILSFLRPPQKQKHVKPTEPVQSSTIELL

CYP2C9 (Homo sapiens) = CYP2C9 (Homo sapiens) (UniProt P11712); conditions: proteome array, scrambled control
Sequence of CYP2C9 (Homo sapiens) (P11712 whole entry): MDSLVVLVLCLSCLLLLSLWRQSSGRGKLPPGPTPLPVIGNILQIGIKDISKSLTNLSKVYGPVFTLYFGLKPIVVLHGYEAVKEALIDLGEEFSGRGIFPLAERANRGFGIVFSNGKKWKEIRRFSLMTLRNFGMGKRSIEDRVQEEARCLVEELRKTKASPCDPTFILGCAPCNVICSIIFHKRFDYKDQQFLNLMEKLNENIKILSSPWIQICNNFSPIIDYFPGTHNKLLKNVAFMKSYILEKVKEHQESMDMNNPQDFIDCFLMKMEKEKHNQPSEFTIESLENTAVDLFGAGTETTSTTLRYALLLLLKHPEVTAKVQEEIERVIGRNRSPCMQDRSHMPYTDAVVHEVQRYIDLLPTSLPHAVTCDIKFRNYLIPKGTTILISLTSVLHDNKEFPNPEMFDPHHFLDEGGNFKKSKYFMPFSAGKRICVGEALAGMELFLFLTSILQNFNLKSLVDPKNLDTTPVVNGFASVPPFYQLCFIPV

PGA5 (Homo sapiens) = PGA5 (Homo sapiens) (UniProt P0DJD9); conditions: proteome array, scrambled control
Sequence of PGA5 (Homo sapiens) (P0DJD9 16-388): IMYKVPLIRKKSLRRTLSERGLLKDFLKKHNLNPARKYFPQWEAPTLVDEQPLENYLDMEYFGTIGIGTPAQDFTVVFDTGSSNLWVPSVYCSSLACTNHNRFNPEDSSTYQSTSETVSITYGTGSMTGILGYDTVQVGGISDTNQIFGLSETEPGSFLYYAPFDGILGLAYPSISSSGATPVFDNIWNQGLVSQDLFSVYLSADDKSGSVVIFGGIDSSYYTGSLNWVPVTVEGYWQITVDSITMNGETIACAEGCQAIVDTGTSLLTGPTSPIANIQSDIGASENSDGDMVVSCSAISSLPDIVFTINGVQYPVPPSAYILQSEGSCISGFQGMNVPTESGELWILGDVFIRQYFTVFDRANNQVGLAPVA

TRIM32 (Homo sapiens) = TRIM32 (Homo sapiens) (UniProt Q13049); conditions: proteome array, scrambled control
Sequence of TRIM32 (Homo sapiens) (Q13049 whole entry): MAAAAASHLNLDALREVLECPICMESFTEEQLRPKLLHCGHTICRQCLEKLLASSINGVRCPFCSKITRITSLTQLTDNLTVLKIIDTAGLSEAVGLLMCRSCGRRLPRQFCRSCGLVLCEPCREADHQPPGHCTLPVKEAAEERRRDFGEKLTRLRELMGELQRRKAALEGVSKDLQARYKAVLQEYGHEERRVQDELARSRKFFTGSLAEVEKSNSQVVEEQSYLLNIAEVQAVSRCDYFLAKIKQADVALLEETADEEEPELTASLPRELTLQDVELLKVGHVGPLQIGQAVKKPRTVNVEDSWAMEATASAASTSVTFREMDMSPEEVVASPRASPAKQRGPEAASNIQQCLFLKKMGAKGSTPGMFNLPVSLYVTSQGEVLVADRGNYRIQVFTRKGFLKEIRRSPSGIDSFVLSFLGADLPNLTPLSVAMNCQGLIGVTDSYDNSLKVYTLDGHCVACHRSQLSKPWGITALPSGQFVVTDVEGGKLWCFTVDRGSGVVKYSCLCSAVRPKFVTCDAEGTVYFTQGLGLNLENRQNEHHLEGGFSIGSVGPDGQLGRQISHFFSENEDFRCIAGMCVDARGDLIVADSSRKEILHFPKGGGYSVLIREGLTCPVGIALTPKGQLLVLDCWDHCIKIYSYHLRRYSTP

[5] = system: SOX6 (Homo sapiens), P35712-4; conditions: proteome array, scrambled control
Sequence of SOX6 (Homo sapiens), P35712-4 (P35712 other isoform, or with tags, fused parts or gaps): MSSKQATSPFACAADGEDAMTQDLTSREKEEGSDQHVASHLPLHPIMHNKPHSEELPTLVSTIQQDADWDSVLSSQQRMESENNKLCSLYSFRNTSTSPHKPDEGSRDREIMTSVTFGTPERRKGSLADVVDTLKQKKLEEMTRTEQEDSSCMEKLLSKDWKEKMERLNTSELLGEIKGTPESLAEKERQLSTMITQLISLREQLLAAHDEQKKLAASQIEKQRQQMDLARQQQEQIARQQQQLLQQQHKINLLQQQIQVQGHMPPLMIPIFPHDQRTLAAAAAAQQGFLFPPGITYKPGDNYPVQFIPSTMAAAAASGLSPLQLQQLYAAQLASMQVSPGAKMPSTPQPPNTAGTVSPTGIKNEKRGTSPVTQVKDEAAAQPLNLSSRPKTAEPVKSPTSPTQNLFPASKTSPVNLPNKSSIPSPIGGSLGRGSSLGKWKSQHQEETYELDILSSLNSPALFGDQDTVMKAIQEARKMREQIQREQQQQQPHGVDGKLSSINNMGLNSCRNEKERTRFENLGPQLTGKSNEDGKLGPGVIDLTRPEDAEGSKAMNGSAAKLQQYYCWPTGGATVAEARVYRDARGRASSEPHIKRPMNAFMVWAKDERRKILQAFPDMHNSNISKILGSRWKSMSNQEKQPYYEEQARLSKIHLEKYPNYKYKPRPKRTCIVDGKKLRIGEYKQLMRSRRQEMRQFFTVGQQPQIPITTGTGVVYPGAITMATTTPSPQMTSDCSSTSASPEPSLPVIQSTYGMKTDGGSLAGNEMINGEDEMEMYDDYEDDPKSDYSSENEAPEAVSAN

In the case of GC-scrambled RNA, the binding signal (HMGB2 (Homo sapiens)) is reported as 1.23 Z-score, the binding signal (WBP11 (Homo sapiens)) is reported as -0.17 Z-score and the binding signal [1] is reported as 7.8 Z-score. It also gave a binding signal ([2]; scrambled control) of 3.43 Z-score, a binding signal (RANGAP1 (Homo sapiens)) of 1.21 Z-score and a binding signal (MPP7 (Homo sapiens)) of 0.3 Z-score. It also gave a binding signal (ORAOV1 (Homo sapiens)) of 0.41 Z-score, a binding signal (NUDT6 (Homo sapiens)) of 8.38 Z-score and a binding signal [3] of 6.71 Z-score. It also gave a binding signal (NDST1 (Homo sapiens)) of 8.06 Z-score, a binding signal (JARID2 (Homo sapiens)) of 0.64 Z-score and a binding signal (PTER (Homo sapiens)) of 4.09 Z-score. For the same substance, the binding signal (TCL1B (Homo sapiens)) was 5.42 Z-score, the binding signal (ADARB2 (Homo sapiens)) was -0.2 Z-score and the binding signal ([4]; scrambled control) was 2.18 Z-score. The binding signal (CYP2C9 (Homo sapiens)) was 1.49 Z-score, the binding signal (PGA5 (Homo sapiens)) was 2.96 Z-score and the binding signal (TRIM32 (Homo sapiens)) was 4.63 Z-score. The binding signal [5] was 1.16 Z-score.
Substance “GGGGCCGGGGCCGGGGCCGGGGCCGGGGCCGGGGCCGGG [GGGGCCx6.5 RNA]” has a binding signal ([2]; [none], delta Z 10.61) of 14 Z-score and a binding signal ([4]; [none], delta Z 2.58) of 4.76 Z-score.
